Blank lines part the entries; values can stand above or below the molecule they belong to.
What was measured:
[1] = molecular target: Mouse CD20 (endogenous, on mouse B cell lines and splenic B cells) (mouse) (UniProt P19437); test: flow cytometry on A20 cells; isotype control, PE-anti-mouse IgG2b
[2] = molecular target: Mouse CD20 (endogenous, on mouse B cell lines and splenic B cells) (mouse) (UniProt P19437); test: flow cytometry on NS-1 cells; isotype control, PE-anti-mouse IgG2b
[3] = molecular target: Mouse CD20 with C-terminal Idectin peptide tag, on transfected CHO cells (mouse) (UniProt P19437); test: flow cytometry on CHO-CD20 cells; isotype control, PE-anti-mouse IgG2b
[4] = molecular target: Mouse CD20 (endogenous, on mouse B cell lines and splenic B cells) (mouse) (UniProt P19437); test: flow cytometry on WEHI 279 cells; isotype control, PE-anti-mouse IgG2b
[5] = molecular target: Mouse CD20 (endogenous, on mouse B cell lines and splenic B cells) (mouse) (UniProt P19437); test: flow cytometry on BCL 1/3B3 cells; isotype control, PE-anti-mouse IgG2b
[6] = molecular target: Mouse CD20 with C-terminal V5 peptide tag, on transfected 300.18 cells (mouse) (UniProt P19437); test: flow cytometry on 300.18-CD20 cells; isotype control, PE-anti-mouse IgG2b
[7] = molecular target: Mouse CD20 (endogenous, on mouse B cell lines and splenic B cells) (mouse) (UniProt P19437); test: flow cytometry on wild type C57Bl/6 splenocytes; isotype control, PE-anti-mouse IgG2b
[8] = molecular target: T1, Mouse CD20 with C-terminal Idectin peptide tag, on transfected CHO cells (mouse, UniProt P19437 1-291); test: flow cytometry on transfected CHO cells
T1 construct: also called CHO-CD20; CHO cells transfected with mouse CD20; not shown: Idectin peptide tag at the 3' end of the gene (N5K-CtIdectin-B7.1-Ig vector)
T1 sequence: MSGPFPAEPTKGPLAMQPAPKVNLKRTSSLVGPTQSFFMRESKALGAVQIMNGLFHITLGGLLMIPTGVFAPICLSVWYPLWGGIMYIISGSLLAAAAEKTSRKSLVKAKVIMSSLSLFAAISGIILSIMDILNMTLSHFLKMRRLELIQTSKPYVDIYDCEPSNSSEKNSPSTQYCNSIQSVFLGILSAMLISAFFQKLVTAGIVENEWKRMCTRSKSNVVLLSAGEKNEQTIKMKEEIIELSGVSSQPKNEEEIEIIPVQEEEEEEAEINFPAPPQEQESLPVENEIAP
Procedure: (§1) Cell Staining and Flow Cytometry Analyses. All staining procedures were done in round bottom 96-well plates (Corning 3799) in FACS buffer (Dulbecco's PBS supplemented with 2% FBS, 0.05% sodium azide, 10% normal goat serum (heat inactivated), and 2.4G2 (1 ug/ml). None of the monoclonal secondary antibodies used recognized rat IgG2b (the 2.4G2 antibody). Cells (1×10⁵ to 1×10⁶) were incubated with primary or secondary antibodies for 45 minutes each on ice, washed between incubations, and resuspended at 1×10⁶ cells/ml in FACS buffer for analyses. Fluorescence was measured on a FACSArray or FACSCalibur and analyzed with BD FACSArray System Software or Cell Quest Pro software.

[9] = molecular target: T2, Mouse CD20 with C-terminal V5 peptide tag, on transfected 300.18 cells (mouse, UniProt P19437 1-291); test: flow cytometry on transfected 300.18 cells
T2 sequence: T1 sequence
Procedure: as §1

[10] = molecular target: T3, Mouse CD20 (endogenous, on mouse B cell lines and splenic B cells) (mouse, UniProt P19437 1-291); test: summary of Example 1; flow cytometry on cells
T3 construct: also called mCD20
T3 sequence: T1 sequence
Procedure: as §1

Rat CD20 = molecular target: T4, Rat CD20 (rat, UniProt D4A4Y3 1-287); test: flow cytometry staining of rat splenic B cells and two rat B cell lines
T4 construct: whole, on cells; also called CD20 on rat splenic B cells and rat B cell lines
T4 sequence: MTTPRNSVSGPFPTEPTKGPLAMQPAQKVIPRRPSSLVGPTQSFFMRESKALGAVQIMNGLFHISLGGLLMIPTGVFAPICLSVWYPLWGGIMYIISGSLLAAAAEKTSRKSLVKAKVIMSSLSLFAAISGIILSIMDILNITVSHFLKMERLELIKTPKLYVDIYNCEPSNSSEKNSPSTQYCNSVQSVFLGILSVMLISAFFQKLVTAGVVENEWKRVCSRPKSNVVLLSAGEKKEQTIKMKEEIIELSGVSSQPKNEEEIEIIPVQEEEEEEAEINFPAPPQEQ

geometric mean of fluorescence intensity [1]: 3.4
geometric mean of fluorescence intensity [2]: 3.8
geometric mean of fluorescence intensity [3]: 3.6
geometric mean of fluorescence intensity [4]: 5.9
geometric mean of fluorescence intensity [5]: 4.2
geometric mean of fluorescence intensity [6]: 4.1
geometric mean of fluorescence intensity [7]: 3.8
Molecule: IgG2b isotype control antibody

binding result [8]: binds
binding result [9]: binds
binding result [10]: binds
binding result (Rat CD20): no binding
B1: 18B12 IgG1 mouse anti-mouse CD20 monoclonal antibody (antibody, V domains shown)
VH: QVQLQQPGAELVRPGTSVKLSCKASGYTFTSYWMHWIKQRPGQGLEWIGVIDPSDNYTKYNQKFKGKATLTVDTSSSTAYMQLSSLTSEDSAVYFCAREGYYGSSPWFAYWGQGTLVTVSS
VL: QIVMSQSPAILSASPGEKVTMTCRARSSVSYIHWYQQKPGSSPKPWIYATSNLASGVPGRFSGSGSGTSYSLTITRVEAEDAATYYCQQWSSKPPTFGGGTKLEIKR
modifications: N-terminal pyroglutamic acid (N-terminal glutamine blocked)
notes: also called 18B12 antibody; 18B12-A1C3-H3
